Test results from the supplement of paper PMC9112550, “Optimization of the antimicrobial peptide Bac7 by deep mutational scanning” (BMC Biology, 2022).

Tested on: Escherichia coli TOP10
Assay: shrunken log2 fold change of peptide-encoding DNA abundance (4.5 h post-induction vs induction); higher = less antimicrobial activity (less host growth inhibition)
Details: time post-induction: 4.5 h; library: site-saturation at positions 5, 18, 19, 20
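Also: peptides expressed intracellularly from a pBAD plasmid library in pooled LB shake-flask culture, induced with 0.3% L-arabinose, DNA abundance read by NGS, three biological replicates, DESeq2 with apeglm shrinkage.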

Sequence | shrunken log2 fold change
RRIRLRPPRLPRPRPRPCDQPRP | -0.016
RRIRLRPPRLPRPRPRPCENPRP | 0.00489
RRIRLRPPRLPRPRPRPCFMPRP | -0.311
RRIRLRPPRLPRPRPRPCFTPRP | -0.497
RRIRLRPPRLPRPRPRPCHHPRP | -0.322
RRIRLRPPRLPRPRPRPCHKPRP | -0.278
RRIRLRPPRLPRPRPRPCHWPRP | -0.11
RRIRLRPPRLPRPRPRPCKLPRP | -0.114
RRIRLRPPRLPRPRPRPCLDPRP | -0.0475
RRIRLRPPRLPRPRPRPCMRPRP | 0.188
RRIRLRPPRLPRPRPRPCQFPRP | -0.0181
RRIRLRPPRLPRPRPRPCRAPRP | 0.146
RRIRLRPPRLPRPRPRPCRTPRP | -0.66
RRIRLRPPRLPRPRPRPCTMPRP | -0.152
RRIRLRPPRLPRPRPRPCTWPRP | 0.0461
RRIRLRPPRLPRPRPRPCTYPRP | -0.683
RRIRLRPPRLPRPRPRPCVRPRP | 0.0511
RRIRLRPPRLPRPRPRPCWLPRP | 0.0345
RRIRLRPPRLPRPRPRPCWMPRP | -0.168
RRIRLRPPRLPRPRPRPCWQPRP | 0.00378

Sequence | shrunken log2 fold change
RRIRLRPPRLPRPRPRPCYMPRP | -0.308
RRIRLRPPRLPRPRPRPDCHPRP | 0.092
RRIRLRPPRLPRPRPRPDFMPRP | -0.277
RRIRLRPPRLPRPRPRPDGAPRP | 0.0651
RRIRLRPPRLPRPRPRPDGHPRP | 0.0499
RRIRLRPPRLPRPRPRPDLAPRP | -0.062
RRIRLRPPRLPRPRPRPDLFPRP | -0.000844
RRIRLRPPRLPRPRPRPDMQPRP | -0.0583
RRIRLRPPRLPRPRPRPDNGPRP | -0.0567
RRIRLRPPRLPRPRPRPDPQPRP | -0.00554
RRIRLRPPRLPRPRPRPDQGPRP | -0.034
RRIRLRPPRLPRPRPRPDQHPRP | -0.0962
RRIRLRPPRLPRPRPRPDQIPRP | 0.018
RRIRLRPPRLPRPRPRPDSTPRP | -0.603
RRIRLRPPRLPRPRPRPDTHPRP | -0.543
RRIRLRPPRLPRPRPRPDTRPRP | -0.278
RRIRLRPPRLPRPRPRPDVGPRP | -0.0266
RRIRLRPPRLPRPRPRPDVTPRP | -0.0876
RRIRLRPPRLPRPRPRPDWEPRP | 0.0332
RRIRLRPPRLPRPRPRPDYSPRP | 0.14

Sequence | shrunken log2 fold change
RRIRLRPPRLPRPRPRPDYYPRP | -0.216
RRIRLRPPRLPRPRPRPEDHPRP | -0.0495
RRIRLRPPRLPRPRPRPEEGPRP | -0.115
RRIRLRPPRLPRPRPRPEGNPRP | -0.149
RRIRLRPPRLPRPRPRPEGRPRP | 1.11
RRIRLRPPRLPRPRPRPEHVPRP | -0.0237
RRIRLRPPRLPRPRPRPEISPRP | 0.099
RRIRLRPPRLPRPRPRPELAPRP | 0.0176
RRIRLRPPRLPRPRPRPELGPRP | 0.0397
RRIRLRPPRLPRPRPRPELYPRP | -0.0383
RRIRLRPPRLPRPRPRPEMRPRP | 0.0659
RRIRLRPPRLPRPRPRPENFPRP | 0.0173
RRIRLRPPRLPRPRPRPENVPRP | -0.0483
RRIRLRPPRLPRPRPRPEPPPRP | 0.53
RRIRLRPPRLPRPRPRPEPWPRP | 0.222
RRIRLRPPRLPRPRPRPESDPRP | -0.0845
RRIRLRPPRLPRPRPRPESSPRP | -0.015
RRIRLRPPRLPRPRPRPETLPRP | 0.228
RRIRLRPPRLPRPRPRPEVSPRP | 0.254
RRIRLRPPRLPRPRPRPEWRPRP | -0.0482
